From publication PMC10840721 (Developmental cell, 2022) come the findings set out here.

The target in data set [1] is T1, NHR-23;NHR-85 (Caenorhabditis elegans;Caenorhabditis …, UniProt P41828;Q9XUK7 1-588;1-514, |).
T1 sequence 1: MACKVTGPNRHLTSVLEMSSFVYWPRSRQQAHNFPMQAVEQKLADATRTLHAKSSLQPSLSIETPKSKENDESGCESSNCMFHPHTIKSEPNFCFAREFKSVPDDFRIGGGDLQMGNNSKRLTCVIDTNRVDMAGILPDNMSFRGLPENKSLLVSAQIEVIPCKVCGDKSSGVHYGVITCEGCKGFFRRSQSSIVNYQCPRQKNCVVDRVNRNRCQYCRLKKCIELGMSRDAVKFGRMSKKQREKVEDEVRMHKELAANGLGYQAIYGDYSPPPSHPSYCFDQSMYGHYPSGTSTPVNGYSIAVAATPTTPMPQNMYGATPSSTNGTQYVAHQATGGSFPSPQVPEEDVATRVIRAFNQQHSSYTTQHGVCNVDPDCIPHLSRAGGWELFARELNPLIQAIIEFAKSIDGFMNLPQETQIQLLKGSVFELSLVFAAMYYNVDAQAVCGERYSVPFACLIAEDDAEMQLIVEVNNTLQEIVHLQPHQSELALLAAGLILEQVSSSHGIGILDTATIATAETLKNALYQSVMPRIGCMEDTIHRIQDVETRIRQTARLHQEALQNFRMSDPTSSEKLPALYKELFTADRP
T1 sequence 2: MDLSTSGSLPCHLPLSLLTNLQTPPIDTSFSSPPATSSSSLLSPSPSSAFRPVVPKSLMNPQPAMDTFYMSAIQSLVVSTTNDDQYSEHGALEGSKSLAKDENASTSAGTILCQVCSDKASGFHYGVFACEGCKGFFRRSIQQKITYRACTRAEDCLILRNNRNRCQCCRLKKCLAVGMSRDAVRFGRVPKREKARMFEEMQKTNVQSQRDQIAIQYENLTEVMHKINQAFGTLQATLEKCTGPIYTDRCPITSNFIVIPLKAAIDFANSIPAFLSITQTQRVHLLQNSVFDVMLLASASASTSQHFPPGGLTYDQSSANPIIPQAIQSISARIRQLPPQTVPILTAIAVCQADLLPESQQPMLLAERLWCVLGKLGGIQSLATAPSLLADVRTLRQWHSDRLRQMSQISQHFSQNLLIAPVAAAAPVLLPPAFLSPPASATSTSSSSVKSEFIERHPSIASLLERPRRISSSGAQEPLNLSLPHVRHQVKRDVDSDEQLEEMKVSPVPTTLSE
Put plainly: EMSA.

The target of data set [2] is T2, NHR-23 (recombinant, Strep-SUMO tag cleaved) (C. elegans, UniProt P41828 1-588).
T2 sequence (looked up): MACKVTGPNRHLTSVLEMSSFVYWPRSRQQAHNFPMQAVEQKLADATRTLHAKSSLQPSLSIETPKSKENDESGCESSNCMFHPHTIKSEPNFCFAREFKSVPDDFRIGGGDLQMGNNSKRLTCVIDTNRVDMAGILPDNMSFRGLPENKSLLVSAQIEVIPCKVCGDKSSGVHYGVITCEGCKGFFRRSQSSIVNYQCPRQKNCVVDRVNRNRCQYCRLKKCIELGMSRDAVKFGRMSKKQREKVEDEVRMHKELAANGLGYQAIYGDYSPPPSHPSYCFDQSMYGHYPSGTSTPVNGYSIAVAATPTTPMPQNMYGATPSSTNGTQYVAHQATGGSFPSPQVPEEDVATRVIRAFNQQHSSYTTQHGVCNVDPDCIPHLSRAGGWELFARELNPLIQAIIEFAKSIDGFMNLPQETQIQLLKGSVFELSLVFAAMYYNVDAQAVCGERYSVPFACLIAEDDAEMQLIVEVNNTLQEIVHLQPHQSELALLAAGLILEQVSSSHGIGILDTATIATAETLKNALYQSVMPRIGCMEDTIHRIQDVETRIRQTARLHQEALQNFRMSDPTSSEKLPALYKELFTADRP
Put plainly: MST.

Data set [3] concerns the target T1, NHR-23;NHR-85. Put plainly: EMSA. This is another data set of the same source.
Data set [4] deals with T1, NHR-23;NHR-85. Put plainly: EMSA. This is another data set of the same source. For orientation: Mobility shift assays separate free from complexed probe on a gel.

Where two headings read alike, the source gives them in different places.

B1: Mut_DR1 (dsDNA)
DNA 1: ACAAATTGACCTGTGTCGGTCAGTA
DNA 2: ACTGACCGACACAGGTCAATTTGT
On to B1, for which the binding result with NHR-23;NHR-85 [1] is “no binding”.

B2: Mut_DR2 (dsDNA)
DNA 1: ACAAATTGAGGTCAGTCCCTGTCTA
DNA 2: TAGACAGGGACTGACCTCAATTTGT
On to B2, for which the binding result with NHR-23;NHR-85 [1] was “no binding”.

B3: Strep2-NHR-85 (natural protein, C. elegans, UniProt Q9XUK7 1-514, looked up)
chain: MDLSTSGSLPCHLPLSLLTNLQTPPIDTSFSSPPATSSSSLLSPSPSSAFRPVVPKSLMNPQPAMDTFYMSAIQSLVVSTTNDDQYSEHGALEGSKSLAKDENASTSAGTILCQVCSDKASGFHYGVFACEGCKGFFRRSIQQKITYRACTRAEDCLILRNNRNRCQCCRLKKCLAVGMSRDAVRFGRVPKREKARMFEEMQKTNVQSQRDQIAIQYENLTEVMHKINQAFGTLQATLEKCTGPIYTDRCPITSNFIVIPLKAAIDFANSIPAFLSITQTQRVHLLQNSVFDVMLLASASASTSQHFPPGGLTYDQSSANPIIPQAIQSISARIRQLPPQTVPILTAIAVCQADLLPESQQPMLLAERLWCVLGKLGGIQSLATAPSLLADVRTLRQWHSDRLRQMSQISQHFSQNLLIAPVAAAAPVLLPPAFLSPPASATSTSSSSVKSEFIERHPSIASLLERPRRISSSGAQEPLNLSLPHVRHQVKRDVDSDEQLEEMKVSPVPTTLSE
modifications: AlexaFluor647 NHS Ester label (in the microscale thermophoresis assay only)
In the case of B3, the Kd in data set [2] stood at 5.8 nM.

B4: Proximal (25 bp) (dsDNA)
DNA 1: CGAAGCGACCGAATGACCCAGTCTC
DNA 2: GAGACTGGGTCATTCGGTCGCTTCG
As to B4, in the data set with NHR-23;NHR-85 [3], the binding result is listed as “binds”.

B5: wtLIN-4_23_85 (PCE direct repeat, 25 bp) (dsDNA)
DNA 1: ACAAATTGAGGTCAGTCGGTCAGTA
DNA 2: TACTGACCGACTGACCTCAATTTGT
Turning to B5, the binding result with NHR-23;NHR-85 [4] is “binds”.

Broadly, the Kd is the concentration at which binding is half-saturated.
